Measured values as given in PMC12808100, “The non-catalytic DNA polymerase ε subunit is an NPF motif recognition protein” (Nature Communications, 2025).

B1: LDB1 (protein, UniProt Q86U70 2-411, looked up)
LIM domain-binding protein 1: SVGCACPGCSSKSFKLYSPKEPPNGNAFPPFHPGTMLDRDVGPTPMYPPTYLEPGIGRHTPYGNQTDYRIFELNKRLQNWTEECDNLWWDAFTTEFFEDDAMLTITFCLEDGPKRYTIGRTLIPRYFRSIFEGGATELYYVLKHPKEAFHSNFVSLDCDQGSMVTQHGKPMFTQVCVEGRLYLEFMFDDMMRIKTWHFSIRQHRELIPRSILAMHAQDPQMLDQLSKNITRCGLSNSTLNYLRLCVILEPMQELMSRHKTYSLSPRDCLKTCLFQKWQRMVAPPAEPTRQQPSKRRKRKMSGGSTMSSGGGNTNNSNSKKKSPASTFALSSQVPDVMVVGEPTLMGGEFGDEDERLITRLENTQFDAANGIDDEDSFNNSPALGANSPWNSKPPSSQESKSENPTSQASQ
B2: PITPNA (protein, UniProt Q00169 2-270, looked up)
Phosphatidylinositol transfer …: VLLKEYRVILPVSVDEYQVGQLYSVAEASKNETGGGEGVEVLVNEPYEKDGEKGQYTHKIYHLQSKVPTFVRMLAPEGALNIHEKAWNAYPYCRTVITNEYMKEDFLIKIETWHKPDLGTQENVHKLEPEAWKHVEAVYIDIADRSQVLSKDYKAEEDPAKFKSIKTGRGPLGPNWKQELVNQKDCPYMCAYKLVTVKFKWWGLQNKVENFIHKQERRLFTNFHRQLFCWLDKWVDLTMDDIRRMEEETKRQLDEMRQKDPVKGMTADD
B3: CAPN6 (protein, UniProt Q9Y6Q1 1-641, looked up)
Calpain-6: MGPPLKLFKNQKYQELKQECIKDSRLFCDPTFLPENDSLFYNRLLPGKVVWKRPQDICDDPHLIVGNISNHQLTQGRLGHKPMVSAFSCLAVQESHWTKTIPNHKEQEWDPQKTEKYAGIFHFRFWHFGEWTEVVIDDLLPTINGDLVFSFSTSMNEFWNALLEKAYAKLLGCYEALDGLTITDIIVDFTGTLAETVDMQKGRYTELVEEKYKLFGELYKTFTKGGLICCSIESPNQEEQEVETDWGLLKGHTYTMTDIRKIRLGERLVEVFSAEKVYMVRLRNPLGRQEWSGPWSEISEEWQQLTASDRKNLGLVMSDDGEFWMSLEDFCRNFHKLNVCRNVNNPIFGRKELESVLGCWTVDDDPLMNRSGGCYNNRDTFLQNPQYIFTVPEDGHKVIMSLQQKDLRTYRRMGRPDNYIIGFELFKVEMNRKFRLHHLYIQERAGTSTYIDTRTVFLSKYLKKGNYVLVPTMFQHGRTSEFLLRIFSEVPVQLRELTLDMPKMSCWNLARGYPKVVTQITVHSAEDLEKKYANETVNPYLVIKCGKEEVRSPVQKNTVHAIFDTQAIFYRRTTDIPIIVQVWNSRKFCDQFLGQVTLDADPSDCRDLKSLYLRKKGGPTAKVKQGHISFKVISSDDLTEL
B4: FBXO45 (protein, UniProt P0C2W1 2-286, looked up)
F-box/SPRY domain-containing …: AAPAPGAGAASGGAGCSGGGAGAGAGSGSGAAGAGGRLPSRVLELVFSYLELSELRSCALVCKHWYRCLHGDENSEVWRSLCARSLAEEALRTDILCNLPSYKAKIRAFQHAFSTNDCSRNVYIKKNGFTLHRNPIAQSTDGARTKIGFSEGRHAWEVWWEGPLGTVAVIGIATKRAPMQCQGYVALLGSDDQSWGWNLVDNNLLHNGEVNGSFPQCNNAPKYQIGERIRVILDMEDKTLAFERGYEFLGVAFRGLPKVCLYPAVSAVYGNTEVTLVYLGKPLDG
B5: IVD (protein, UniProt P26440 33-426, looked up)
Isovaleryl-CoA dehydrogenase, …: HSLLPVDDAINGLSEEQRQLRQTMAKFLQEHLAPKAQEIDRSNEFKNLREFWKQLGNLGVLGITAPVQYGGSGLGYLEHVLVMEEISRASGAVGLSYGAHSNLCINQLVRNGNEAQKEKYLPKLISGEYIGALAMSEPNAGSDVVSMKLKAEKKGNHYILNGNKFWITNGPDADVLIVYAKTDLAAVPASRGITAFIVEKGMPGFSTSKKLDKLGMRGSNTCELIFEDCKIPAANILGHENKGVYVLMSGLDLERLVLAGGPLGLMQAVLDHTIPYLHVREAFGQKIGHFQLMQGKMADMYTRLMACRQYVYNVAKACDEGHCTAKDCAGVILYSAECATQVALDGIQCFGGNGYINDFPMGRFLRDAKLYEIGAGTSEVRRLVIGRAFNADFH
B6: SEC14L4 (protein, UniProt Q9UDX3 1-406, looked up)
SEC14-like protein 4: MSSRVGDLSPQQQEALARFRENLQDLLPILPNADDYFLLRWLRARNFDLQKSEDMLRRHMEFRKQQDLDNIVTWQPPEVIQLYDSGGLCGYDYEGCPVYFNIIGSLDPKGLLLSASKQDMIRKRIKVCELLLHECELQTQKLGRKIEMALMVFDMEGLSLKHLWKPAVEVYQQFFSILEANYPETLKNLIVIRAPKLFPVAFNLVKSFMSEETRRKIVILGDNWKQELTKFISPDQLPVEFGGTMTDPDGNPKCLTKINYGGEVPKSYYLCEQVRLQYEHTRSVGRGSSLQVENEILFPGCVLRWQFASDGGDIGFGVFLKTKMGEQQSAREMTEVLPSQRYNAHMVPEDGSLTCLQAGVYVLRFDNTYSRMHAKKLSYTVEVLLPDKASEETLQSLKAMRPSPTQ
B7: NUP35 (protein, UniProt Q8NFH5 1-326, looked up)
Nucleoporin NUP35: MAAFAVEPQGPALGSEPMMLGSPTSPKPGVNAQFLPGFLMGDLPAPVTPQPRSISGPSVGVMEMRSPLLAGGSPPQPVVPAHKDKSGAPPVRSIYDDISSPGLGSTPLTSRRQPNISVMQSPLVGVTSTPGTGQSMFSPASIGQPRKTTLSPAQLDPFYTQGDSLTSEDHLDDSWVTVFGFPQASASYILLQFAQYGNILKHVMSNTGNWMHIRYQSKLQARKALSKDGRIFGESIMIGVKPCIDKSVMESSDRCALSSPSLAFTPPIKTLGTPTQPGSTPRISTMRPLATAYKASTSDYQVISDRQTPKKDESLVSKAMEYMFGW
B8: DOK1 (protein, UniProt Q99704 1-481, looked up)
Docking protein 1: MDGAVMEGPLFLQSQRFGTKRWRKTWAVLYPASPHGVARLEFFDHKGSSSGGGRGSSRRLDCKVIRLAECVSVAPVTVETPPEPGATAFRLDTAQRSHLLAADAPSSAAWVQTLCRNAFPKGSWTLAPTDNPPKLSALEMLENSLYSPTWEGSQFWVTVQRTEAAERCGLHGSYVLRVEAERLTLLTVGAQSQILEPLLSWPYTLLRRYGRDKVMFSFEAGRRCPSGPGTFTFQTAQGNDIFQAVETAIHRQKAQGKAGQGHDVLRADSHEGEVAEGKLPSPPGPQELLDSPPALYAEPLDSLRIAPCPSQDSLYSDPLDSTSAQAGEGVQRKKPLYWDLYEHAQQQLLKAKLTDPKEDPIYDEPEGLAPVPPQGLYDLPREPKDAWWCQARVKEEGYELPYNPATDDYAVPPPRSTKPLLAPKPQGPAFPEPGTATGSGIKSHNSALYSQVQKSGASGSWDCGLSRVGTDKTGVKSEGST
B9: ATAD3A (protein, UniProt Q9NVI7 2-586, looked up)
ATPase family AAA …: SWLFGINKGPKGEGAGPPPPLPPAQPGAEGGGDRGLGDRPAPKDKWSNFDPTGLERAAKAARELEHSRYAKDALNLAQMQEQTLQLEQQSKLKEYEAAVEQLKSEQIRAQAEERRKTLSEETRQHQARAQYQDKLARQRYEDQLKQQQLLNEENLRKQEESVQKQEAMRRATVEREMELRHKNEMLRVEAEARARAKAERENADIIREQIRLKAAEHRQTVLESIRTAGTLFGEGFRAFVTDWDKVTATVAGLTLLAVGVYSAKNATLVAGRFIEARLGKPSLVRETSRITVLEALRHPIQVSRRLLSRPQDALEGVVLSPSLEARVRDIAIATRNTKKNRSLYRNILMYGPPGTGKTLFAKKLALHSGMDYAIMTGGDVAPMGREGVTAMHKLFDWANTSRRGLLLFVDEADAFLRKRATEKISEDLRATLNAFLYRTGQHSNKFMLVLASNQPEQFDWAINDRINEMVHFDLPGQEERERLVRMYFDKYVLKPATEGKQRLKLAQFDYGRKCSEVARLTEGMSGREIAQLAVSWQATAYASEDGVLTEAMMDTRVQDAVQQHQQKMCWLKAEGPGRGDEPSPS
B10: URM1 (protein, UniProt Q9BTM9 1-101, looked up)
Ubiquitin-related modifier 1: MAAPLSVEVEFGGGAELLFDGIKKHRVTLPGQEEPWDIRNLLIWIKKNLLKERPELFIQGDSVRPGILVLINDADWELLGELDYQLQDQDSVLFISTLHGG
B11: PYGB (protein, UniProt P11216 2-843, looked up)
Glycogen phosphorylase, brain …: AKPLTDSEKRKQISVRGLAGLGDVAEVRKSFNRHLHFTLVKDRNVATPRDYFFALAHTVRDHLVGRWIRTQQHYYERDPKRIYYLSLEFYMGRTLQNTMVNLGLQNACDEAIYQLGLDLEELEEIEEDAGLGNGGLGRLAACFLDSMATLGLAAYGYGIRYEFGIFNQKIVNGWQVEEADDWLRYGNPWEKARPEYMLPVHFYGRVEHTPDGVKWLDTQVVLAMPYDTPVPGYKNNTVNTMRLWSAKAPNDFKLQDFNVGDYIEAVLDRNLAENISRVLYPNDNFFEGKELRLKQEYFVVAATLQDIIRRFKSSKFGCRDPVRTCFETFPDKVAIQLNDTHPALSIPELMRILVDVEKVDWDKAWEITKKTCAYTNHTVLPEALERWPVSMFEKLLPRHLEIIYAINQRHLDHVAALFPGDVDRLRRMSVIEEGDCKRINMAHLCVIGSHAVNGVARIHSEIVKQSVFKDFYELEPEKFQNKTNGITPRRWLLLCNPGLADTIVEKIGEEFLTDLSQLKKLLPLVSDEVFIRDVAKVKQENKLKFSAFLEKEYKVKINPSSMFDVHVKRIHEYKRQLLNCLHVVTLYNRIKRDPAKAFVPRTVMIGGKAAPGYHMAKLIIKLVTSIGDVVNHDPVVGDRLKVIFLENYRVSLAEKVIPAADLSQQISTAGTEASGTGNMKFMLNGALTIGTMDGANVEMAEEAGAENLFIFGLRVEDVEALDRKGYNAREYYDHLPELKQAVDQISSGFFSPKEPDCFKDIVNMLMHHDRFKVFADYEAYMQCQAQVDQLYRNPKEWTKKVIRNIACSGKFSSDRTITEYAREIWGVEPSDLQIPPPNIPRD

target: His6-avi-MBP-tagged POLE2; experiment: Single-point nHU-MS with recombinant His6-avi-MBP-POLE2 bait, Jurkat extract; format: binding, human; settings: significant apparent affinity of endogenous prey protein for POLE2 bait; single-point nHU-MS; Figure S11
From the text: So far, our study only focused on a few hand-picked NPF motifs and studied them as short synthetic peptides. However, many other proteins may be present in the proteome that could bind to POLE2 and their putative NPF motifs are embedded in their natural structures that can greatly affect their binding properties. To investigate interactions between POLE2 and intact, full length proteins proteome-wide, we used nHU-MS experiments with recombinant His6-avi-MBP-tagged POLE2 as bait and purified His6-avi-MBP as a control. Even though we are aware that this recombinant POLE2 may bind to NPF motifs with a somewhat altered affinity, we assumed that this would affect all NPF motif-mediated interactions equally, allowing an unbiased affinity ranking of all identified partners. Single point nHU measurements were performed at 26 μM POLE2 concentration and the recovered supernatant was measured by label free proteomic MS measurements (Fig. 3A, Supplementary Figs. 8A, 9, Supplementary Data 1).
Single-point nHU experiments with protein baits were carried out nearly identically with two key modifications. First, the resin saturation step was carried out by mixing 50 μl streptavidin resin with 0.5−1 ml 50 μM biotinylated protein solution and the mixture was incubated for 1.5 h at 4 °C with constant agitation. Second, instead of using estimated bait concentrations, we measured it experimentally. An extra aliquot of resin stock was prepared alongside the nHU samples that were identically processed that were used to eluate the immobilized proteins under harsh conditions, in order to experimentally quantify the Cbait by using densitometry of Coomassie stained SDS-PAGE that included a protein calibration series. For this, 50 μl bait-saturated resin aliquots were mixed with 200 μl 4x Laemmli Sample Buffer (120 mM Tris-HCl pH 7, 8% SDS, 100 mM DTT, 32% glycerol, 0.004% bromphenol blue, 1% β-mercaptoethanol), instead of cell extract. After 15 min incubation at 95 °C, these samples were analyzed by SDS-PAGE using protein calibration standard, made from recombinant MBP. Densitometry was carried out after Coomassie staining on raw Tif images by using Fiji ImageJ 1.53c and experimental bait concentration were determined by adjusting for molecular weight differences between MBP and MBP-POLE2 constructs.
Samples were digested overnight at 37 °C.

Molecule | pKapp_sign
B1 | 4.689
B2 | 4.604
B3 | 5.695
B4 | 4.883
B5 | 4.276
B6 | 5.194
B7 | 4.141
B8 | 4.232
B9 | 4.126
B10 | 4.219
B11 | 4.228
